# From US7981997B2, “Growth factor which acts through ErbB-4 RTK” (Yeda Research And Development Co., priority 2000, dated 2011)
# B1: NRG-4: synthetic refolded mouse EGF-like domain of NRG-4 (residues 4 to 50, SEQ ID NO:2) (peptide, listed as Mus musculus)
# chain: MPTDHEQPCGPRHRSFCLNGGICYVIPTIPSPFCRCIENYTGARCEEVFLPSSSIPSESNLSAAFVVLAVLLTLTIAALCFLCRKGHLQRASSVQCEISLVETNNTRTRHSHREH
# Legend:
# ErbB-4 = target: T1, ErbB-4 (Homo sapiens, UniProt Q15303); assay: Ligand displacement analysis of radiolabeled NRG-1β on ErbB-4-expressing CHO cells; format: binding; conditions: displacement of surface-bound radiolabeled NRG-1β
# T1 construct: expressed in transfected cells; host or cells: CHO (Chinese Hamster Ovary) cells
# Procedure: Displacement analyses of radiolabeled NRG-1β were performed with CHO cells expressing ErbB-4. Cell monolayers (2×10^5 cells) were incubated for 2 hours at 4° C. with a radiolabeled NRG-1 (5 ng/ml) in the presence of increasing concentrations of an unlabeled NRG-4 (closed triangles), or NRG-1β (closed squares). Each data point represents the mean and range (bars) of two determinations.
# Growth factors were labeled with Iodogen (Pierce) as described (Karunagaran et al., 1995). Chemical crosslinking to Chinese Hamster Ovary (CHO) cells engineered to express different ErbB combinations have been performed essentially as described (Tzahar et al., 1996). Briefly, radiolabeled ligands (at 100 ng/ml) were incubated for 2 hours with cell monolayers at 4 C. The chemical crosslinking agent BS^3 (1 mM) was then added and the cells were further incubated for 45 minutes at 22 C. […] Non-specific binding was determined in the presence of a 100-fold molar excess of the unlabeled ligani. Cells were then washed, lysed in a solution containing 0.1 M NaOH and 0.1% SDS, and radioactivity determined by use of a gamma counter.
# Taken together, the biological effects of NRG-4 and its complex formation with ErbB-4 implied not only specificity of recognition, but also weaker interaction relative to NRG-1. To quantify the interaction, a ligand displacement analysis on ErbB-4-expressing CHO cells was undertaken. […]
# IgB-1 (soluble ErbB-1) = target: T2, IgB-1 (soluble ErbB-1) (Homo sapiens, UniProt P00533); assay: Covalent crosslinking of radiolabeled ligands to soluble ErbB-IgG fusion, cell-free; format: binding; conditions: 125I-labeled ligand, BS3 crosslinking
# T2 construct: Recombinant soluble extracellular domains of the four ErbB proteins (denoted IgB-1 through 4); made in house; host or cells: HEK-293 human embryonic kidney cells (conditioned medium)
# Procedure: The four soluble forms of ErbB proteins, in the form of IgG fusions (denoted IgB-1 through 4), were separately incubated with the indicated radiolabeled growth factors. Where indicated (lower panel), an excess (100-fold) of unlabeled NRG-4 was co-incubated with the labeled ligand. Following 2 hours at 22° C., the covalent crosslinking reagent bis(sulfosuccinimdyl)-suberate (BS^3) was added (1 mM) and 45 minutes later the ligand-receptor complexes were immunoprecipitated with agarose-immobilized protein-A beads.
# For crosslinking with IgBs, after co-incubation of IgB-containing conditioned media with radiolabeled ligands, complexes were immunoprecipitated directly with Sepharose-protein A beads.
# In the first assay, binding studies in a cell-free system were performed with recombinant soluble forms of all four ErbB proteins.
# T1 sequence (Q15303 26-1308, species assumed): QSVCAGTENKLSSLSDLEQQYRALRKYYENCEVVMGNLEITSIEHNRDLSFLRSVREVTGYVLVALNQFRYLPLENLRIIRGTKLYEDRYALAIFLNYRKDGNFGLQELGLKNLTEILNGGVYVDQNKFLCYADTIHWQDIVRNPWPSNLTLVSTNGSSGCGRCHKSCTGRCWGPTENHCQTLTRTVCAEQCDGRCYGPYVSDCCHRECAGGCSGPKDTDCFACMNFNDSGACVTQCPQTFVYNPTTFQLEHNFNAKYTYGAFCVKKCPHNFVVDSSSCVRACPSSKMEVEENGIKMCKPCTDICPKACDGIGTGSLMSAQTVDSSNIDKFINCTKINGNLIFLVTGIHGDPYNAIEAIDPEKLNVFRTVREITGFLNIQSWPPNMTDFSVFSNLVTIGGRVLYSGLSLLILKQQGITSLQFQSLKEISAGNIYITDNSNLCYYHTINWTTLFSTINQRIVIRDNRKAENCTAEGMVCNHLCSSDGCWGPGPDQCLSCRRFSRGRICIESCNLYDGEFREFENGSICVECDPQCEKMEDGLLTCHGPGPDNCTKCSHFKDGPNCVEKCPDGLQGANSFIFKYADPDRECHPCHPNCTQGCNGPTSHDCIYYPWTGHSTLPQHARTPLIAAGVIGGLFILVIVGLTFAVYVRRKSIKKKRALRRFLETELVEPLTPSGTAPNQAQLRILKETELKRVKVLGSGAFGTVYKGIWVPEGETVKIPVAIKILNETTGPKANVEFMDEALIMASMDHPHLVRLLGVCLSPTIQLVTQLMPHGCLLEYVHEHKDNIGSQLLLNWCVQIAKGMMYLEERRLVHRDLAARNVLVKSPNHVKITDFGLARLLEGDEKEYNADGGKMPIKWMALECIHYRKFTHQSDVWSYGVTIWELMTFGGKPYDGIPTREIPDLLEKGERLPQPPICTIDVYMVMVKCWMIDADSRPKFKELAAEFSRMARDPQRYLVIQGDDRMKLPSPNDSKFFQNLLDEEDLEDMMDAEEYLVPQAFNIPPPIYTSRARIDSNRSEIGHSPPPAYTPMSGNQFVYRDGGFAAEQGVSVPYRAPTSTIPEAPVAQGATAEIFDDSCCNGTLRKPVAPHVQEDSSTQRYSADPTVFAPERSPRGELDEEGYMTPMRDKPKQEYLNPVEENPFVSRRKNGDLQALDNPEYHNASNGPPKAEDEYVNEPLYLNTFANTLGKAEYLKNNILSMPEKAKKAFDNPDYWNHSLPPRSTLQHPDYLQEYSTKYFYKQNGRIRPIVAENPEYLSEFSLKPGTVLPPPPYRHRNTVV
molecule,measurement,setting,value
B1,lower binding affinity to ErbB-4 compared with unlabeled NRG-1,ErbB-4,approximately 8 fold
same,binding to IgB-1 (covalent crosslinking signal),IgB-1 (soluble ErbB-1),low or no binding
